The values below come from the nanobody polyreactivity screen of Harvey et al. (2022).

This data set can be described thus: yeast display, Sf9 membrane polyspecificity reagent, FACS + sequencing; frameworks hold sequencing errors. The method in brief: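 A nanobody's polyreactivity label depends on the gate it was sorted from. Yeast display cells were stained with 10% biotinylated, detergent-solubilized Sf9 membrane reagent for 1 hour at 4 °C, enriched on streptavidin microbeads and sorted by FACS. The low and high (top ~1%) gates were set on anti-HA fluorescence for expression and streptavidin fluorescence for reagent binding.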
As to “QVQLVESGGGLVQAGGSLRLSCAASGITFSSYTMGWYRQARGKERELVAAISRTGGSTYYADSVKGRFTISRDNAKNTVYLQMNSLIPEDTAVYYCAARVAGRTLSGGDYWGQGTQVTVSS”, the “polyreactivity (PSR sort gate)” value is listed as “high polyreactivity”. The same measure for “QVQLVESGGGLVQAGGSLRLSCAASGITFSSYVMGWYRQAPGKERELDAAISRSGGITYYADSVKGRFTISRDNAKNTVYLQMNSLKPEDTAVYYCAVRYYIYRPGGYDYWGQGTQVTVSS”: “high polyreactivity”. Next, “QVQLVESGGGLVQAGGSLRLSCAASGITFSVYAMGWYRQAPRKERELVASISSGGTSTYYADSVKGRFTISRDNAKNTVYLQMNSLKPEDTPVYYCAAYSYYTRDPYSYDYWGQGTQVTVSS”: “low polyreactivity”; “QVQLVESGGGLVQAGGSLRLSCAASGITFSYYAMGWYRQAPGKERELVAAISRTGTSTYYADSVKGRFTISRDNAKNTVYLQMNSLKPEDTAVYYCAARYYYWGQGTQVTVSS”: “high polyreactivity”. As for “QVQLVESGGGLVQAGGSLRLSCAASGITFSYYAMGWYRQAPGKERELVAAISWSGGTTYYADSVKGRFTISRDNAKNTVYLQMNSLKPEDTAVYYCAADGGAVGSDYWGQGTQVTVSS”, the “polyreactivity (PSR sort gate)” value is “high polyreactivity”. With “QVQLVESGGGLVQAGGSLRLSCAASGITFSYYAMGWYRQAPGKERELVAAISYTSGSTYYADSVKGRFTISRDNAKNTVYLQMNSLKPEDTAGYYCAARSRWSKQFRYDYWGQGTQVTVSS”, the “polyreactivity (PSR sort gate)” value is given as “high polyreactivity”. Take “QVQLVESGGGLVQAGGSLRLSCAASGITFSYYAMGWYRQAPGKERELVATIRSSGGSTYYADSVKGRFTISRDNAKNTVYLQMNSLKPEDTAVYYCAVRLWFDYNYWGQGTQVTVSS”: the “polyreactivity (PSR sort gate)” value is given as “low polyreactivity”.

For the sequence “QVQLVESGGGLVQAGGSLRLSCAASGITFSYYTLGWYRQAPGKERELFARINSGGTTNYADSVKGRFTISRDNAKNTVYLQMNSLKPEDTAVYYCAAEWVSWRWAHKFDYWGQGTQVTVSS”, the “polyreactivity (PSR sort gate)” value is “high polyreactivity”. The same measure for “QVQLVESGGGLVQAGGSLRLSCAASGITFTGYAMGWYRPAPGKERELGAAITWSSGSTYYADSVKGRFTISRDNAKNTVYLQMNSLKPEDTAVYYCAAEVNVGTLLLSVIVEDGDYWGQGTQVTVSS”: “low polyreactivity”; for “QVQLVESGGGLVQAGGSLRLSCAASGITFTGYAMGWYRQAPGKERELVAAISVSTVSTYYADSVKGRFTISRDNAKNTDYLQMTSLKPEDTAVYYCNADATDSYPEKDEHDSWGQGTQVTVSS”: “low polyreactivity”; for “QVQLVESGGGLVQAGGSLRLSCAASGITFTGYAMGWYRQAPGKERELVAVISETGGSTYADSVKGRFTISRDNAKNTVYLQMNSLKPEDTAVYYCAADPHDTVRHDALVELEYWGQGTQVTVSS”: “low polyreactivity”. The same measure for “QVQLVESGGGLVQAGGSLRLSCAASGITFTGYAMGWYRQAPGKERELVAVISETGGSTYADSVKGRFTISRDNAKNTVYLQMNSLKREDTAVYYCAARLWWPYSTAWAKMDYWGQGTQVTVSS”: “low polyreactivity”; for “QVQLVESGGGLVQAGGSLRLSCAASGITFTRYAMGWYRQAPGKEREFVAAIRRSGGNTYYADSVKGRFTISRDNAKNNVYLQRNSLKPEESAVYYCPASFRKTSPTRLVDYWGLGTQVTVSS”: “low polyreactivity”. On to “QVQLVESGGGLVQAGGSLRLSCAASGITFTSYVMGWYRQAPGKERELVAAIRWSGGRTYYADSVKGRFTISRDNAKITVYLQMNSLKPEDTAVYYCNRVTRSHVDYWGQGTQVTLSS”, for which the “polyreactivity (PSR sort gate)” value was “high polyreactivity”. Next, “QVQLVESGGGLVQAGGSLRLSCAASGITFTVYAMGWYRQAPGKERELVAAITSTGSTNYADSVKGRSTISRDNAKNTVYLQMNSLKPEDTAVYYCAADRQITVYAYDYWGQGTQVTVSS”: “low polyreactivity”.

“QVQLVESGGGLVQAGGSLRLSCAASGITFTYYVMGWYRQAPGKERELVAAISSGGRTYYADSVKGRFTISRDNAKNTVYLEMNSLKPEDTAVYYCNADQYLRYFGRYYRSGEYWGQGTQVTVSS”: the “polyreactivity (PSR sort gate)” value is “high polyreactivity”. The same measure for “QVQLVESGGGLVQAGGSLRLSCAASGITFVFYAMGWYRQAPGKERELVATISYRGTSTYYADSVKGRFTISRDNAKNTVYLQMNSLKPEDTAVYYCAADTYIYYKTGYGYWGQGTQVTVSS”: “low polyreactivity”; for “QVQLVESGGGLVQAGGSLRLSCAASGITFVFYTMGWYRQAPGKERELVAAIARSGASTYYADSVKGRFTLSRDNAKNTVYLQMNSLKPEDTALYYGAADRGYRFRMDYWGQGTQVTVSS”: “high polyreactivity”. “QVQLVESGGGLVQAGGSLRLSCAASGITFVFYTMGWYRQAPGKETELVAAISRSGASTYYADSVKGRFTISRDNAKNTVYLQMNSLKPEDTAVYYCAADRGYRFRMDYWGQGTQVTVST”: the “polyreactivity (PSR sort gate)” value was “high polyreactivity”. The same measure for “QVQLVESGGGLVQAGGSLRLSCAASGITFVGNAMGWYRQAPGKERELVAVISRGDSTNYADSVKGRFTISRDNAKNTVYLQMNSLKPEDTAVYYCAADGSRAGQEGNDYCGQGTQVTVSS”: “low polyreactivity”; for “QVQLVESGGGLVQAGGSLRLSCAASGITFVGNARGWYRQAPGKERELVAGIRGNGGSTYYADSVKGRFTISRDNAKNTVYLQMNSLKPEDTAVYYCAAAAYYADFDYWGQGTQVTVSS”: “low polyreactivity”. Next, “QVQLVESGGGLVQAGGSLRLSCAASGITFVHYAMGWYRQAPGKERELVAAITVGDGGTYYADSVKGRFTISRDNAKNTVYLQMNSLKPEDTAVYYCAAGFYSYSWYVKLAYGYWGQGIQVTVSS”: “low polyreactivity”; “QVQLVESGGGLVQAGGSLRLSCAASGITFVLYAMGWYRQAPGKEREFVAAITNSGGSTYYADSVKGRFTISRDNAKNTVYLQMNSLKPEDTAVYYCAATRRRYRPYEYWGQGTQVTVSS”: “high polyreactivity”. The same measure for “QVQLVESGGGLVQAGGSLRLSCAASGITFVLYAMGWYRQAPGKERELVAAITWRGGSTYYADSVKGRFTISRDNAKNTVYLQMNSLKPEDTAVYYCAAVPFTSYRQGDYWGQGTQVTVSS”: “low polyreactivity”; for “QVQLVESGGGLVQAGGSLRLSCAASGITFVPNAMGWYRQAPGKERELVAAINNGGSTYYADSVKGRFTISRDNAKNTVYLQMNSLKPEDTAVYYCAAVSLSTVRGYYYWGQGTQVTVSS”: “low polyreactivity”; for “QVQLVESGGGLVQAGGSLRLSCAASGITFVQYAMGWYRQAPGKERELVAAITSDGRTYYADSVKGRFTISRDNAKNTVYLQMNSLKPEDTAVYYCAADVWRYTAYGGAYRRDYWGQGTQVTVSS”: “low polyreactivity”. “QVQLVESGGGLVQAGGSLRLSCAASGITFVRNAMGWYRQAPGKEREFVAAISGSGVSTYADSVKGRFTISRDNAKNTVYLQMNSLKPEDTAVYYCARDFPWSYAWYDYWGQGTQVTVSS”: the “polyreactivity (PSR sort gate)” value is listed as “low polyreactivity”.

For “QVQLVESGGGLVQAGGSLRLSCAASGITFVRYAMGWYRQAPGKERELVAAIRQNGGDTYYADSVKRRFTISRDNAKNTDYLQMNSLKPEDTAVYYCNARMRGAGGYTYYYWGQGTQVTVSS”, the “polyreactivity (PSR sort gate)” value was “high polyreactivity”. Next, “QVQLVESGGGLVQAGGSLRLSCAASGITFVRYAMGWYRQAPGKERELVAVISRGGITNYADSVKGRFTISRDNAKNTVYLQMNSLKPEDTAVYYCAVRGRSYVRTYDYWGQGTQVTVSS”: “high polyreactivity”; “QVQLVESGGGLVQAGGSLRLSCAASGITFWFYAMGWYRQAPGKERELVADITSGGSTYYADSVKGLFTISRDNAKNTVYLQMNSLKPEDTAVYYCAADSWDSLAGLWDWNGPYYYWGQGTQVTVSS”: “low polyreactivity”; “QVQLVESGGGLVQAGGSLRLSCAASGITFWSYAMGWYRQAPGKERELVAAISRGGDSTYYADSVKGRFTISRDNAKNTVYLQMNSLKPEDTAVYYCAALRKREEYYWGQGTQVTVSS”: “high polyreactivity”. The same measure for “QVQLVESGGGLVQAGGSLRLSCAASGITFWYYAMGWYRQAPGKERELVAAISSSGGRTTYADSVKGRFTISRDNAKNTVYLQMNSLKPEDTAVYYCATTYGDRYVTAYDYWGQGTQVTVSS”: “high polyreactivity”; for “QVQLVESGGGLVQAGGSLRLSCAASGITFYAYAIGWYRQAPGKERELVAAITSSGGNTYYADSVKGRFTISRDNAKNTVYLQMKSLKPEDTAVYYCNIRRYWWWQMGYWGQGTQVTVSS”: “high polyreactivity”.

As for “QVQLVESGGGLVQAGGSLRLSCAASGITFYDYAMGWYRQAPGKERELVAAISGGGITYYADSVKGRFTISRDNAKNTVYLQMNSLKPEDTAVYYCAADAYGYGGDSWGQGTQVTVSS”, the “polyreactivity (PSR sort gate)” value was “low polyreactivity”. As for “QVQLVESGGGLVQAGGSLRLSCAASGITFYEYAMGWYRQAPGKERELVAAISTSGGNTYYADSVKGRFTISRDNAKNTVYLQMKSLKPEDTAVYYCAAQGTASSYSGGDYWGQGTQVTVSS”, the “polyreactivity (PSR sort gate)” value is on record as “low polyreactivity”. Next, “QVQLVESGGGLVQAGGSLRLSCAASGITFYEYAMGWYRQAPGKERELVATITSGGNTNYADSVKGRFTISRDNAKNTVYLQMNSLKPEDTAVYFCATRPYGYSCNRPYDYWGQGTQVTVSS”: “low polyreactivity”.

Regarding “QVQLVESGGGLVQAGGSLRLSCAASGITFYFNAMGWYRQAPGKERELVAAISFSGGGTYYADSVKGRFTISRDNAKNTVYLQMTSLKPEDTAVYYCNADYGRGTLRSIYDYWGQGTQVTVSS”, the “polyreactivity (PSR sort gate)” value is “low polyreactivity”. For “QVQLVESGGGLVQAGGSLRLSCAASGITFYFYAMGWYRQAPGKERELVAAITRGGRTNYADSVKGRFTISRDNAKNTVYLQMNSLKPEDTAVYYCNKRLYSYYPGKYVAEYDYWGQGTQVTVSS”, the “polyreactivity (PSR sort gate)” value was “high polyreactivity”. Regarding “QVQLVESGGGLVQAGGSLRLSCAASGITFYFYTMGWYRQAPGKERELVAAISRGGGSTYYADSVKGRFTISRDNAKNTVYLQMNSLKPEDTAVYYCAADYKPHYYHDDYWGQGTQVTVSS”, the “polyreactivity (PSR sort gate)” value is “low polyreactivity”. In the case of “QVQLVESGGGLVQAGGSLRLSCAASGITFYGYAMGWYRHAPGKERELVATISSGGGTNYADSVKGRFTISRDNAKNTVYLQMNSLKPEDSAVYYCATDLSTVDYNYWGQGTQVTVSS”, the “polyreactivity (PSR sort gate)” value is “low polyreactivity”. On to “QVQLVESGGGLVQAGGSLRLSCAASGITFYGYAMGWYRPAPGKERELVAVITSTARTNYADSVNGRFTISRDNAKNTVYLQMNSLKPEDTAVYYCAAVHSSYSFNYWGQGTQVTVSS”, for which the “polyreactivity (PSR sort gate)” value was “high polyreactivity”.
